Measured values: the supplement of paper PMC11246515
± gives the standard deviation of the averaged measurements.

Assay: total protein half-life in vivo (active degradation + dilution); higher = more stable protein
[1] = E. coli NCM3722 delta-clpP delta-lon delta-hslV, growth: N-lim chemostat, doubling time 6 h
[2] = E. coli NCM3722 delta-clpP, growth: N-lim chemostat, doubling time 6 h
[3] = E. coli NCM3722 delta-lon, growth: N-lim chemostat, doubling time 6 h
[4] = E. coli NCM3722 delta-smpB, growth: N-lim chemostat, doubling time 6 h
[5] = wild type E. coli NCM3722, growth: C-lim chemostat, doubling time 3 h
[6] = wild type E. coli NCM3722, growth: C-lim chemostat, doubling time 6 h
[7] = wild type E. coli NCM3722, growth: C-lim chemostat, doubling time 12 h
[8] = wild type E. coli NCM3722, growth: N-lim chemostat, doubling time 6 h
[9] = wild type E. coli NCM3722, growth: N-lim chemostat, doubling time 12 h
[10] = wild type E. coli NCM3722, growth: P-lim chemostat, doubling time 6 h
[11] = wild type E. coli NCM3722, growth: P-lim chemostat, doubling time 12 h
[12] = E. coli NCM3722 delta-hslV, growth: N-lim chemostat, doubling time 6 h

## MEMLEEHRCFEGWQQRWRHDSSTLNCPMTFSIFLPPPRDHTPPPVLYWLSGLTCNDENFTTKAGAQRVAAELGIVLVMPDTSPRGEKVANDDGYDLGQGAGFYLNATQPPWATHYRMYDYLRDELPALVQSQFNVSDRCAISGHSMGGHGALIMALKNPGKYTSVSAFAPIVNPCSVPWGIKAFSSYLGEDKNAWLEWDSCALMYASNAQDAIPTLIDQGDNDQFLADQLQPAVLAEAARQKAWPMTLRIQPGYDHSYYFIASFIEDHLRFHAQYLLK
[1]
  total protein half-life in vivo: 5.79 ± 0.058 h
[2]
  total protein half-life in vivo: 5.61 ± 0.89 h
[3]
  total protein half-life in vivo: 6.09 ± 0.43 h
[4]
  total protein half-life in vivo: 5.19 ± 0.2 h
[5]
  total protein half-life in vivo: 3.5 ± 0.13 h
[6]
  total protein half-life in vivo: 5.59 ± 0.15 h
[7]
  total protein half-life in vivo: 13 ± 2.8 h
[8]
  total protein half-life in vivo: 5.67 ± 0.38 h
[9]
  total protein half-life in vivo: 8.798 ± 0.034 h
[10]
  total protein half-life in vivo: 6.2 ± 0.11 h
[11]
  total protein half-life in vivo: 11.9 ± 1.7 h

## MEMLSGAEMVVRSLIDQGVKQVFGYPGGAVLDIYDALHTVGGIDHVLVRHEQAAVHMADGLARATGEVGVVLVTSGPGATNAITGIATAYMDSIPLVVLSGQVATSLIGYDAFQECDMVGISRPVVKHSFLVKQTEDIPQVLKKAFWLAASGRPGPVVVDLPKDILNPANKLPYVWPESVSMRSYNPTTTGHKGQIKRALQTLVAAKKPVVYVGGGAITAGCHQQLKETVEALNLPVVCSLMGLGAFPATHRQALGMLGMHGTYEANMTMHNADVIFAVGVRFDDRTTNNLAKYCPNATVLHIDIDPTSISKTVTADIPIVGDARQVLEQMLELLSQESAHQPLDEIRDWWQQIEQWRARQCLKYDTHSEKIKPQAVIETLWRLTKGDAYVTSDVGQHQMFAALYYPFDKPRRWINSGGLGTMGFGLPAALGVKMALPEETVVCVTGDGSIQMNIQELSTALQYELPVLVVNLNNRYLGMVKQWQDMIYSGRHSQSYMQSLPDFVRLAEAYGHVGIQISHPHELESKLSEALEQVRNNRLVFVDVTVDGSEHVYPMQIRGGGMDEMWLSKTERT
[1]
  total protein half-life in vivo: 5.76 ± 1.1 h
[2]
  total protein half-life in vivo: 5.31 ± 0.18 h
[12]
  total protein half-life in vivo: 5.06 ± 0.41 h
[3]
  total protein half-life in vivo: 5.03 ± 0.088 h
[4]
  total protein half-life in vivo: 5.13 ± 0.46 h
[5]
  total protein half-life in vivo: 3.03 ± 0.14 h
[6]
  total protein half-life in vivo: 6.41 ± 0.94 h
[7]
  total protein half-life in vivo: 11.1 ± 0.39 h
[8]
  total protein half-life in vivo: 4.78 ± 0.1 h
[9]
  total protein half-life in vivo: 8.81 ± 0.62 h
[10]
  total protein half-life in vivo: 6.092 ± 0.014 h
[11]
  total protein half-life in vivo: 12 ± 0.24 h

## MEMTNAQRLILSNQYKMMTMLDPANAERYRRLQTIIERGYGLQMRELDREFGELKEETCRTIIDIMEMYHALHVSWSNLQDQQSIDERRVTFLGFDAATEARYLGYVRFMVNVEGRYTHFDAGTHGFNAQTPMWEKYQRMLNVWHACPRQYHLSANEINQIINA [P0A8W8]
[1]
  total protein half-life in vivo: 6.72 ± 0.27 h
[2]
  total protein half-life in vivo: 6.41 ± 0.99 h
[12]
  total protein half-life in vivo: 6.154 ± 0.032 h
[3]
  total protein half-life in vivo: 6.11 ± 0.3 h
[4]
  total protein half-life in vivo: 5.32 ± 0.45 h
[5]
  total protein half-life in vivo: 3.28 ± 0.18 h
[6]
  total protein half-life in vivo: 6.14 ± 0.35 h
[7]
  total protein half-life in vivo: 12.1 ± 0.18 h
[8]
  total protein half-life in vivo: 5.83 ± 0.58 h
[9]
  total protein half-life in vivo: 12.9 ± 2.1 h
[10]
  total protein half-life in vivo: 6.41 ± 0.61 h
[11]
  total protein half-life in vivo: > 16 h

## MEMYFKRMKDEWTGLVEQADPPIRAKAAEIAVAHAHYLSIEFYRIVRIDPHAEEFLSNEQVERQLKSAMERWIINVLSAQVDDVERLIQIQHTVAEVHARIGIPVEIVEMGFRVLKKILYPVIFSSDYSAAEKLQVYHFSINSIDIAMEVMTRAFTFSDSSASKEDENYRIFSLLENAEEEKERQIASILSWEIDIIYKILLDSDLGSSLPLSQADFGLWFNHKGRHYFSGIAEVGHISRLIQDFDGIFNQTMRNTRNLNNRSLRVKFLLQIRNTVSQIITLLRELFEEVSRHEVGMDVLTKLLNRRFLPTIFKREIAHANRTGTPLSVLIIDVDKFKEINDTWGHNTGDEILRKVSQAFYDNVRSSDYVFRYGGDEFIIVLTEASENETLRTAERIRSRVEKTKLKAANGEDIALSLSIGAAMFNGHPDYERLIQIADEALYIAKRRGRNRVELWKASL [P0AA89]
[1]
  total protein half-life in vivo: 6.71 ± 1.4 h
[2]
  total protein half-life in vivo: 3.48 ± 0.94 h
[12]
  total protein half-life in vivo: 2.854 ± 0.0076 h
[3]
  total protein half-life in vivo: 4.26 ± 0.88 h
[4]
  total protein half-life in vivo: 2.81 ± 0.03 h
[5]
  total protein half-life in vivo: 1.66 ± 0.26 h
[6]
  total protein half-life in vivo: 3.16 ± 0.017 h
[7]
  total protein half-life in vivo: 4.49 ± 0.37 h
[8]
  total protein half-life in vivo: 3.21 ± 0.42 h
[9]
  total protein half-life in vivo: 4.83 ± 0.27 h
[10]
  total protein half-life in vivo: 1.49 ± 0.32 h
[11]
  total protein half-life in vivo: 3.09 ± 0.069 h

## MENNRNFPARQFHSLTFFAGLCIGITPVAQALAAEGQTNADDTLVVEASTPSLYAPQQSADPKFSRPVADTTRTMTVISEQVIKDQGATNLTDALKNVPGVGAFFAGENGNSTTGDAIYMRGADTSNSIYIDGIRDIGSVSRDTFNTEQVEVIKGPSGTDYGRSAPTGSINMISKQPRNDSGIDASASIGSAWFRRGTLDVNQVIGDTTAVRLNVMGEKTHDAGRDKVKNERYGVAPSVAFGLGTANRLYLNYLHVTQHNTPDGGIPTIGLPGYSAPSAGTAALNHSGKVDTHNFYGTDSDYDDSTTDTATMRFEHDINDNTTIRNTTRWSRVKQDYLMTAIMGGASNITQPTSDVNSWTWSRTANTKDVSNKILTNQTNLTSTFYTGSIGHDVSTGVEFTRETQTNYGVNPVTLPAVNIYHPDSSIHPGGLTRNGANANGQTDTFAIYAFDTLQITRDFELNGGIRLDNYHTEYDSATACGGSGRGAITCPTGVAKGSPVTTVDTAKSGNLMNWKAGALYHLTENGNVYINYAVSQQPPGGNNFALAQSGSGNSANRTDFKPQKANTSEIGTKWQVLDKRLLLTAALFRTDIENEVEQNDDGTYSQYGKKRVEGYEISVAGNITPAWQVIGGYTQQKATIKNGKDVAQDGSSSLPYTPEHAFTLWSQYQATDDISVGAGARYIGSMHKGSDGAVGTPAFTEGYWVADAKLGYRVNRNLDFQLNVYNLFDTDYVASINKSGYRYHPGEPRTFLLTANMHF
[5]
  total protein half-life in vivo: 3.14 ± 0.17 h
[7]
  total protein half-life in vivo: > 16 h
[8]
  total protein half-life in vivo: > 8 h
[9]
  total protein half-life in vivo: > 16 h

## MEPKTKKQRSLYIPYAGPVLLEFPLLNKGSAFSMEERRNFNLLGLLPEVVETIEEQAERAWIQYQGFKTEIDKHIYLRNIQDTNETLFYRLVNNHLDEMMPVIYTPTVGAACERFSEIYRRSRGVFISYQNRHNMDDILQNVPNHNIKVIVVTDGERILGLGDQGIGGMGIPIGKLSLYTACGGISPAYTLPVVLDVGTNNQQLLNDPLYMGWRNPRITDDEYYEFVDEFIQAVKQRWPDVLLQFEDFAQKNAMPLLNRYRNEICSFNDDIQGTAAVTVGTLIAASRAAGGQLSEKKIVFLGAGSAGCGIAEMIISQTQREGLSEEAARQKVFMVDRFGLLTDKMPNLLPFQTKLVQKRENLSDWDTDSDVLSLLDVVRNVKPDILIGVSGQTGLFTEEIIREMHKHCPRPIVMPLSNPTSRVEATPQDIIAWTEGNALVATGSPFNPVVWKDKIYPIAQCNNAFIFPGIGLGVIASGASRITDEMLMSASETLAQYSPLVLNGEGMVLPELKDIQKVSRAIAFAVGKMAQQQGVAVKTSAEALQQAIDDNFWQAEYRDYRRTSI
[1]
  total protein half-life in vivo: 6.33 ± 0.63 h
[2]
  total protein half-life in vivo: 6.5 ± 0.58 h
[12]
  total protein half-life in vivo: 5.686 ± 0.037 h
[3]
  total protein half-life in vivo: 6.01 ± 0.3 h
[4]
  total protein half-life in vivo: 6.06 ± 0.73 h
[5]
  total protein half-life in vivo: 3.1 ± 0.2 h
[6]
  total protein half-life in vivo: 5.94 ± 0.31 h
[7]
  total protein half-life in vivo: 10.8 ± 0.22 h
[8]
  total protein half-life in vivo: 5.23 ± 0.31 h
[9]
  total protein half-life in vivo: 10.8 ± 0.32 h
[10]
  total protein half-life in vivo: 6.05 ± 0.42 h
[11]
  total protein half-life in vivo: 12.1 ± 0.8 h
